# Data: article PMC2724291 (Nucleic Acids Research, 2009)
# Positions count from the first letter of the chain named. Numbers in names are those of the source. Read-outs that look alike come from different tables or passages of the source.
# B1: wild-type ϕC31 integrase (Int) (enzyme, phage ϕC31, UniProt Q9T221 1-605, looked up)
# chain: MDTYAGAYDRQSRERENSSAASPATQRSANEDKAADLQREVERDGGRFRFVGHFSEAPGTSAFGTAERPEFERILNECRAGRLNMIIVYDVSRFSRLKVMDAIPIVSELLALGVTIVSTQEGVFRQGNVMDLIHLIMRLDASHKESSLKSAKILDTKNLQRELGGYVGGKAPYGFELVSETKEITRNGRMVNVVINKLAHSTTPLTGPFEFEPDVIRWWWREIKTHKHLPFKPGSQAAIHPGSITGLCKRMDADAVPTRGETIGKKTASSAWDPATVMRILRDPRIAGFAAEVIYKKKPDGTPTTKIEGYRIQRDPITLRPVELDCGPIIEPAEWYELQAWLDGRGRGKGLSRGQAILSAMDKLYCECGAVMTSKRGEESIKDSYRCRRRKVVDPSAPGQHEGTCNVSMAALDKFVAERIFNKIRHAEGDEETLALLWEAARRFGKLTEAPEKSGERANLVAERADALNALEELYEDRAAGAYDGPVGRKHFRKQQAALTLRQQGAEERLAELEAAEAPKLPLDQWFPEDADADPTGPKSWWGRASVDDKRVFVGLFVDKIVVTKSTTGRGQGTPIEKRASITWAKPPTDDDEDDAQDGTEDVAA
# B2: hMBP-γ (H1 and H2 of the putative coiled-coil motif of ϕC31 Int fused to histidine-tagged maltose-binding protein) (domain or fragment, phage ϕC31, UniProt Q9T221 445-524, looked up)
# chain: GKLTEAPEKSGERANLVAERADALNALEELYEDRAAGAYDGPVGRKHFRKQQAALTLRQQGAEERLAELEAAEAPKLPLD
# B3: hMBP-γ^E449K (domain or fragment, phage ϕC31, UniProt Q9T221 445-524, looked up)
# chain: B2 chain with E5K
# How the values were obtained:
# SEC [1] = molecular target: the molecule itself; assay: SEC
# SEC [2] = molecular target: the molecule itself; assay: SEC; remark: listed apart in the source
protein,measurement,setting,value
B1,binding result,SEC [1],binds
B2,stoichiometry N,SEC [2],2
B3,binding result,SEC [2],binds
